Literature values as cited in PMC2910649.

Target: VEGFR2 (Homo sapiens) (UniProt P35968)
Sequence of UniProt P35968 (P35968 20-1356): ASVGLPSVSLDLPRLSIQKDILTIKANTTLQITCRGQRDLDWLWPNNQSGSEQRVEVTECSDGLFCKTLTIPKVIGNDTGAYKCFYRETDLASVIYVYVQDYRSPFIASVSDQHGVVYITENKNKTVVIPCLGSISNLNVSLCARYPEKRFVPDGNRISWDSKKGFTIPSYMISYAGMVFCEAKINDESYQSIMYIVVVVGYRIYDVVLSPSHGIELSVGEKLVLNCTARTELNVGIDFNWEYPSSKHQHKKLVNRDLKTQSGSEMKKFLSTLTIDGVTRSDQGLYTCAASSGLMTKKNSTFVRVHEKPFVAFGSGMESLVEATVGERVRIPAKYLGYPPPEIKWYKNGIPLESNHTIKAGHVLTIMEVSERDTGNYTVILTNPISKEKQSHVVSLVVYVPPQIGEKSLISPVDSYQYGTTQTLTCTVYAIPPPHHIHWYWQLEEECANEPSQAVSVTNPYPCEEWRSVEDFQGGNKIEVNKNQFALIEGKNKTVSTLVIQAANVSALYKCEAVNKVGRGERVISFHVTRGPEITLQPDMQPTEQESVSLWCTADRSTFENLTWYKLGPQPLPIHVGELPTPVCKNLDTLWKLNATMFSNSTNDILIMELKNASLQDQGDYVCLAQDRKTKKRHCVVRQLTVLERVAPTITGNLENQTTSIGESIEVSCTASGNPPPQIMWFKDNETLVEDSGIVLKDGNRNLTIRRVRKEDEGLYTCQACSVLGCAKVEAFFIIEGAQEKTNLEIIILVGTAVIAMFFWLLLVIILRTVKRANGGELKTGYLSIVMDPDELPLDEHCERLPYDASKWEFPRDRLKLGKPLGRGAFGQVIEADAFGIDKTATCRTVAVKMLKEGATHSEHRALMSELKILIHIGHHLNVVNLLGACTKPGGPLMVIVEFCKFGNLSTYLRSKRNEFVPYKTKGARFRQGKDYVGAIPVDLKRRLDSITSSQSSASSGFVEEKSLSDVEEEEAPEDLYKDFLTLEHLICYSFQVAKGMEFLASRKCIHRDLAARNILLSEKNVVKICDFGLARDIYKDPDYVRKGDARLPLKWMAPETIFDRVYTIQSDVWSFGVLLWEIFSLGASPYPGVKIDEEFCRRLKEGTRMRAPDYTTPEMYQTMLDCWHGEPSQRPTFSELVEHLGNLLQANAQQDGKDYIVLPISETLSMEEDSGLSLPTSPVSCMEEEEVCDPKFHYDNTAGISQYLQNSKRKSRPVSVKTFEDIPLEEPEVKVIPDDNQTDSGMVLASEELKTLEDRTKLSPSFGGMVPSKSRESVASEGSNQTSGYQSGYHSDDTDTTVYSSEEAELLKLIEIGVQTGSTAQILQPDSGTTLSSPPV

For VEGF-A165 (from UniProt P15692), the Kd is given as 0.21 nM.
